According to article PMC3113324, “AKAP5 and AKAP12 Form Homo-oligomers” (Journal of Molecular Signaling, 2011):
Changes are numbered by the printed parent chain. Numbers in names are those of the source.

B1: His-tagged AKAP12 (1-840) (domain or fragment, human, UniProt Q02952 1-840, looked up)
chain: MGAGSSTEQRSPEQPPEGSSTPAEPEPSGGGPSAEAAPDTTADPAIAASDPATKLLQKNGQLSTINGVAEQDELSLQEGDLNGQKGALNGQGALNSQEEEEVIVTEVGQRDSEDVSKRDSDKEMATKSAVVHDITDDGQEETPEIIEQIPSSESNLEELTQPTESQANDIGFKKVFKFVGFKFTVKKDKTEKPDTVQLLTVKKDEGEGAAGAGDHKDPSLGAGEAASKESEPKQSTEKPEETLKREQSHAEISPPAESGQAVEECKEEGEEKQEKEPSKSAESPTSPVTSETGSTFKKFFTQGWAGWRKKTSFRKPKEDEVEASEKKKEQEPEKVDTEEDGKAEVASEKLTASEQAHPQEPAESAHEPRLSAEYEKVELPSEEQVSGSQGPSEEKPAPLATEVFDEKIEVHQEEVVAEVHVSTVEERTEEQKTEVEETAGSVPAEELVEMDAEPQEAEPAKELVKLKETCVSGEDPTQGADLSPDEKVLSKPPEGVVSEVEMLSSQERMKVQGSPLKKLFTSTGLKKLSGKKQKGKRGGGDEESGEHTQVPADSPDSQEEQKGESSASSPEEPEEITCLEKGLAEVQQDGEAEEGATSDGEKKREGVTPWASFKKMVTPKKRVRRPSESDKEDELDKVKSATLSSTESTASEMQEEMKGSVEEPKPEEPKRKVDTSVSWEALICVGSSKKRARRGSSSDEEGGPKAMGGDHQKADEAGKDKETGTDGILAGSQEHDPGQGSSSPEQAGSPTEGEGVSTWESFKRLVTPRKKSKSKLEEKSEDSIAGSGVEHSTPDTEPGKEESWVSIKKFIPGRRKKRPDGKQEQAPVEDAGPTGANEDD
notes: AKAP12, human, N-terminal fragment, residues 1-840, in pET28b(+); also called N-terminal (1-840) fragment of AKAP12; source: E. coli, purified (Ni-NTA)
B2: His-tagged AKAP12 (840-1782) (domain or fragment, human, UniProt Q02952 840-1782, looked up)
chain: DSDVPAVVPLSEYDAVEREKMEAQQAQKSAEQPEQKAATEVSKELSESQVHMMAAAVADGTRAATIIEERSPSWISASVTEPLEQVEAEAALLTEEVLEREVIAEEEPPTVTEPLPENREARGDTVVSEAELTPEAVTAAETAGPLGAEEGTEASAAEETTEMVSAVSQLTDSPDTTEEATPVQEVEGGVPDIEEQERRTQEVLQAVAEKVKEESQLPGTGGPEDVLQPVQRAEAERPEEQAEASGLKKETDVVLKVDAQEAKTEPFTQGKVVGQTTPESFEKAPQVTESIESSELVTTCQAETLAGVKSQEMVMEQAIPPDSVETPTDSETDGSTPVADFDAPGTTQKDEIVEIHEENEVASGTQSGGTEAEAVPAQKERPPAPSSFVFQEETKEQSKMEDTLEHTDKEVSVETVSILSKTEGTQEADQYADEKTKDVPFFEGLEGSIDTGITVSREKVTEVALKGEGTEEAECKKDDALELQSHAKSPPSPVEREMVVQVEREKTEAEPTHVNEEKLEHETAVTVSEEVSKQLLQTVNVPIIDGAKEVSSLEGSPPPCLGQEEAVCTKIQVQSSEASFTLTAAAEEEKVLGETANILETGETLEPAGAHLVLEEKSSEKNEDFAAHPGEDAVPTGPDCQAKSTPVIVSATTKKGLSSDLEGEKTTSLKWKSDEVDEQVACQEVKVSVAIEDLEPENGILELETKSSKLVQNIIQTAVDQFVRTEETATEMLTSELQTQAHVIKADSQDAGQETEKEGEEPQASAQDETPITSAKEESESTAVGQAHSDISKDMSEASEKTMTVEVEGSTVNDQQLEEVVLPSEEEGGGAGTKSVPEDDGHALLAERIEKSLVEPKEDEKGDDVDDPENQNSALADTDASGGLTKESPDTNGPKQKEKEDAQEVELQEGKVHSESDKAITPQAQEELQKQERESAKSELTES
notes: AKAP12, human, C-terminal fragment, residues 840-1782, in pET28b(+); also called C-terminal (840-1782) fragment of AKAP12; source: E. coli, purified (Ni-NTA)
B3: His-tagged human AKAP12 (natural protein, UniProt Q02952 1-1782, looked up)
chain: MGAGSSTEQRSPEQPPEGSSTPAEPEPSGGGPSAEAAPDTTADPAIAASDPATKLLQKNGQLSTINGVAEQDELSLQEGDLNGQKGALNGQGALNSQEEEEVIVTEVGQRDSEDVSKRDSDKEMATKSAVVHDITDDGQEETPEIIEQIPSSESNLEELTQPTESQANDIGFKKVFKFVGFKFTVKKDKTEKPDTVQLLTVKKDEGEGAAGAGDHKDPSLGAGEAASKESEPKQSTEKPEETLKREQSHAEISPPAESGQAVEECKEEGEEKQEKEPSKSAESPTSPVTSETGSTFKKFFTQGWAGWRKKTSFRKPKEDEVEASEKKKEQEPEKVDTEEDGKAEVASEKLTASEQAHPQEPAESAHEPRLSAEYEKVELPSEEQVSGSQGPSEEKPAPLATEVFDEKIEVHQEEVVAEVHVSTVEERTEEQKTEVEETAGSVPAEELVEMDAEPQEAEPAKELVKLKETCVSGEDPTQGADLSPDEKVLSKPPEGVVSEVEMLSSQERMKVQGSPLKKLFTSTGLKKLSGKKQKGKRGGGDEESGEHTQVPADSPDSQEEQKGESSASSPEEPEEITCLEKGLAEVQQDGEAEEGATSDGEKKREGVTPWASFKKMVTPKKRVRRPSESDKEDELDKVKSATLSSTESTASEMQEEMKGSVEEPKPEEPKRKVDTSVSWEALICVGSSKKRARRGSSSDEEGGPKAMGGDHQKADEAGKDKETGTDGILAGSQEHDPGQGSSSPEQAGSPTEGEGVSTWESFKRLVTPRKKSKSKLEEKSEDSIAGSGVEHSTPDTEPGKEESWVSIKKFIPGRRKKRPDGKQEQAPVEDAGPTGANEDDSDVPAVVPLSEYDAVEREKMEAQQAQKSAEQPEQKAATEVSKELSESQVHMMAAAVADGTRAATIIEERSPSWISASVTEPLEQVEAEAALLTEEVLEREVIAEEEPPTVTEPLPENREARGDTVVSEAELTPEAVTAAETAGPLGAEEGTEASAAEETTEMVSAVSQLTDSPDTTEEATPVQEVEGGVPDIEEQERRTQEVLQAVAEKVKEESQLPGTGGPEDVLQPVQRAEAERPEEQAEASGLKKETDVVLKVDAQEAKTEPFTQGKVVGQTTPESFEKAPQVTESIESSELVTTCQAETLAGVKSQEMVMEQAIPPDSVETPTDSETDGSTPVADFDAPGTTQKDEIVEIHEENEVASGTQSGGTEAEAVPAQKERPPAPSSFVFQEETKEQSKMEDTLEHTDKEVSVETVSILSKTEGTQEADQYADEKTKDVPFFEGLEGSIDTGITVSREKVTEVALKGEGTEEAECKKDDALELQSHAKSPPSPVEREMVVQVEREKTEAEPTHVNEEKLEHETAVTVSEEVSKQLLQTVNVPIIDGAKEVSSLEGSPPPCLGQEEAVCTKIQVQSSEASFTLTAAAEEEKVLGETANILETGETLEPAGAHLVLEEKSSEKNEDFAAHPGEDAVPTGPDCQAKSTPVIVSATTKKGLSSDLEGEKTTSLKWKSDEVDEQVACQEVKVSVAIEDLEPENGILELETKSSKLVQNIIQTAVDQFVRTEETATEMLTSELQTQAHVIKADSQDAGQETEKEGEEPQASAQDETPITSAKEESESTAVGQAHSDISKDMSEASEKTMTVEVEGSTVNDQQLEEVVLPSEEEGGGAGTKSVPEDDGHALLAERIEKSLVEPKEDEKGDDVDDPENQNSALADTDASGGLTKESPDTNGPKQKEKEDAQEVELQEGKVHSESDKAITPQAQEELQKQERESAKSELTES
notes: A-kinase-anchoring protein 12 (AKAP12, gravin, SSECKS), human, full length (1-1782), calculated MW 191.5 kDa; also called gravin; SSECKS; source: E. coli, purified by gel filtration chromatography (Superose 12)
B4: HA-AKAP12M3 (S627A, S696-698A, S772A) (natural protein, human, UniProt Q02952 1-1782, looked up)
chain: B3 chain with S627A, S696A, S697A, S698A, S772A
notes: AKAP12, human, with alanine substitution of the protein kinase A phosphorylation sites; source: HEK293, transfected (pcDNA3.1), in whole-cell lysate

Assays:
[1] = biological target: the molecule itself; assay: SDS-PAGE (SDS-resistant oligomers); purified His-tagged proteins resolved on SDS-PAGE without urea; Coomassie staining and immunoblotting
[2] = biological target: the molecule itself; assay: SDS-PAGE (SDS-resistant oligomers); whole-cell lysates of HEK293 cells on SDS-PAGE without urea; immunoblot with anti-HA or anti-AKAP12; cells also treated with isoproterenol (10 uM, 0, 5, 30 min), KT5720, PD98059 or Rolipram (45 min)

Protein	stoichiometry N [1]	stoichiometry N [2]
B1	2	–
B2	2	–
B3	2	–
B4	–	2
